Square brackets hold non-standard residues; d marks the D form. Ends that are not written are not given here. Hyp = O=C(O)[C@@H]1C[C@@H](O)CN1
Assays:
Test in all cases: competitive ELISA
[1] = molecular target: T1, peptide Gly-Glu-Pro-Gly-Asp-Asp-Gly-Pro-Ser-Gly-Ala-Glu-Gly-Pro-HyP-Gly-Pro-Gln-Gly (SEQ ID NO: 17)
T1 peptide: GEPGDDGPSGAEGP[Hyp]GPQG

[2] = molecular target: neoepitope peptide Asp-Gly-Pro-Ser-Gly-Ala-Glu-Gly-Pro-HyP-Gly-Pro-Gln-Gly (SEQ ID NO: 14) (hydroxyproline (HyP) at position 10 of the peptide (position 971))
[3] = molecular target: T2, peptide Gly-Pro-Pro-Gly-Pro-Gln-Gly-Leu-Ala-Gly-Gln-Arg (SEQ ID NO: 16)
T2 peptide: GPPGPQGLAGQR

[4] = molecular target: T3, peptide Gly-Glu-Pro-Gly-Asp-Asp-Gly-Pro-Ser-Gly-Ala-Glu-Gly-Pro-Pro-Gly-Pro-Gln-Gly (SEQ ID NO: 18)
T3 peptide: GEPGDDGPSGAEGPPGPQG

[5] = molecular target: T4, neoepitope peptide Gly-Pro-Gln-Gly (SEQ ID NO: 15)
T4 peptide: GPQG

B1: anti-neoepitope antibody 20A10 (antibody, V domains shown)
VH: QIQLVQSGPELKEPGETVRISCKASGYTFTKYGINWVKQAPGKGLEWMAWINTYSGMTTYADDFKGRFAFSLETSANTAYLQINHLKNDDTATYFCARSLGYDYGGFAYWGQGTLVTVSA
VL: DVLLTQTPLSLPVSLGDQAFISCRSGQTLVHDNENTYFHWYLQKPGQSPKLLIYKISNRFSGVPDRFSGSGSGTDFTLKISRVEPEDLGIYFCSQNTHVPFTFGSGTKLEIKR
[1]
  IC50: 20 nM
[2]
  IC50: 40 nM
[3]
  IC50: 20200 nM
[4]
  IC50: 22 nM
[5]
  IC50: 99000 nM

From patent publication US20120237948A1 (published 2012)
